The values that follow come from patent publication US20240207464A1 (NIHON MEDI PHYSICS, published 2024).

The target in the assay is T1, CD20 (human, UniProt P11836 1-297).
T1 construct: whole, on cells; also called CD20 on Ramos tumor sections (CD20-positive human Burkitt lymphoma-derived cell line)
T1 sequence (looked up): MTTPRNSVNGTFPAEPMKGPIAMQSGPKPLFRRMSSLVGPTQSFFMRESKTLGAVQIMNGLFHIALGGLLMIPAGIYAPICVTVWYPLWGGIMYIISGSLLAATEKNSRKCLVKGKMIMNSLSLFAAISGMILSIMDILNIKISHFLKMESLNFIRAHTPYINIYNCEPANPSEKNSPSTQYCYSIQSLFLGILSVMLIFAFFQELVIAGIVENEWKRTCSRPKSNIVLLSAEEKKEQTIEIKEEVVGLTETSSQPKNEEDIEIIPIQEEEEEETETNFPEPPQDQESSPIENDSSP
The assay can be described thus: in vitro autoradiography on frozen Ramos and CCRF-CEM tumor sections. The procedure: Ramos cells of a CD20-positive human Burkitt lymphoma-derived cell line purchased from ATCC (American Type Culture Collection), and CCRF-CEM cells of a CD20-negative human acute lymphoblastic leukemia/T lymphocyte-like cell line were administered subcutaneously to the flanks of female BALB/c nu/nu mice (manufactured by Charles River Laboratories Japan, Inc.) at 5×10⁶ cells to prepare tumor-bearing mice. Thereafter, Ramos tumor and CCRF-CEM tumor were excised and embedded in Tissue-Tek O.C.T. Compound (Sakura Finetek Japan Co., Ltd.) to prepare frozen sections. The radioconjugates obtained in Example 1 and Comparative Example 1 were added to 1% bovine serum albumin-containing PBS each at 1 kBq/mL, and Ramos tumor section and CCRF-CEM tumor section were immersed therein. After contacting the sections with the imaging plate, they were read with a scanner-type image analyzer (Typhoon FLA 7000 manufactured by GE Healthcare Japan) to evaluate the level of radioactivity bound to the sections.

B1: radioconjugate (Example 3): conjugate with rituximab by using 89Zr-labeled DOTAGA-DBCO (antibody, human IgG1, kappa)
heavy: not shown
light: QIVLSQSPAILSASPGEKVTMTCRASSSVSYIHWFQQKPGSSPKPWIYATSNLASGVPVRFSGSGSGTSYSLTISRVEAEDAATYYCQQWTSNPPTFGGGTKLEIKRTVAAPSVFIFPPSDEQLKSGTASVVCLLNNFYPREAKVQWKVDNALQSGNSQESVTEQDSKDSTYSLSSTLTLSKADYEKHKVYACEVTHQGLSSPVTKSFNRGEC
peptide: not shown
modifications: lysine side chain modified with R1 (crosslinker, bonded to the antibody Fc); disulfide between the two cysteines; N-terminal ethyl azide via diglycolic acid and eight PEGs, clicked to DBCO of the 89Zr-DOTAGA-DBCO complex; Fc region site-specifically modified by the peptide of SEQ ID NO: 17 through the crosslinker on its lysine; the peptide carries 89Zr-chelated DOTAGA-DBCO through a click reaction
notes: also called 89Zr complex-labeled antibody
Take B1: the binding result is “binds”.

B2: radioconjugate (Comparative Example 2): conjugate with rituximab by using 89Zr-labeled DOTA-DBCO (antibody, human IgG1, kappa)
heavy: not shown
light: B1 light
peptide: not shown
modifications: lysine side chain modified with R1 (crosslinker, bonded to the antibody Fc); disulfide between the two cysteines; N-terminal ethyl azide via diglycolic acid and eight PEGs, clicked to DBCO of the 89Zr-DOTA-DBCO complex; Fc region site-specifically modified by the peptide of SEQ ID NO: 17 through the crosslinker on its lysine; the peptide carries 89Zr-chelated DOTA-DBCO through a click reaction
For B2, the binding result is on record as “binds”.
